Values quoted from earlier work in patent US20260069559A1, “COMBINATIONS OF RXFP1 MODULATORS AND SGLT2 INHIBITORS” (ASTRAZENECA AB, priority 2022, published 2026).

Details: after receiving serelaxin intravenously; fraction of patients

For serelaxin, the “patients who experienced a significant blood pressure drop (>40 mm Hg)” value is listed as “approximately one third”.
